Assay results: the DeepSol protein solubility set

test: soluble on expression in E. coli; label from the status in PepcDB or PDB records

Soluble on expression in E. coli, not soluble:
MGSDKIHHHHHHMSRKSNAFSGSAAGLQHPDGRNDSGQKQQMSSPAALLQSDTLGSRLTSRGDLTSFFMELTAEIGADSYMLVAIVHDQDRNDARIVSSNWIFDAIELIGKRLIASLAQGALTVAPGIRPRPLVAARAPDADGLVSGEEARLLDVLGHAEIYSLRLNVGRQRLFALFSAATSGQIDQPALMKAQLKCCYALSHIPQLIAAAAMQDPLSDRERECLFWVSEGKTTDEVAVILGVSSNTVNSYITHAIQKFAASNRAMAIATAIRSGII
MGSDKIHHHHHHMPSPIDLHSHSTVSDGLLAPEALVAHAAEQGVKVLSLTDHDDTSGLAPAASAAAGHGMEFINGVEISVTWRRKTIHVVGLRVDPDHGPLREGLEKIRAGRHLRAENIAASLEKFGIKGSLEGAYAHARQGIIGRAHFARYLIDQGYASNMKAIFKRYLVKGKPGYVEHHWATLEEVVAWINGSGGVAVLAHPGRYDIGRSNMLLLLEEFRNLGGTAIEVVTGSHNADQFQEYAKLAHMFGLKSSMGSDYHGPGHGNIEMGRLPDLPRGCIPVWQDWPEIRSLNN
MTVIQNIPNSLCKGLNTFSKNYLQNCKRCLTFFYELCGIICKKIEIMKGYERATKEEINDRLRIEENCHAQVERIIYIRHLCNLNLEEAADVTNLSISTLSRYENEVTKCSVQSLITIYYHYQKYLYEQHIPFDKNLFLIDMNSFHN
MEEMRDNDVPVQQALFDMGPDEEVGYRVPIACQVAGITYRQLDYWARTKLVEPTIRTARGSGSQRLYSFKDILVLKIVKRLLDTGISLQNIRLAVDKLRNRGVDDLAEITLVSDGTTVYECRSNEEVIDLLGGGQGVFGIAVPGIVRELTGTISSFPSEKISDFLSNSPAAGGIDELAARRLRKTS
MGSDKIHHHHHHNDPNIQIATQDSLSTLNYRINQLLKNGTVTSSSKKNPEVKTDTDKTANDSTSDSRVWSKPEANVYIDIHDNMQLRSATIDAMNAWNRTGAFTFKQIDNKKNAQIIVNVVDDSGTDAAGETATTYNPATGHLLKATVHLNRYYLQNEWYGYSNNRIINTAEHELGHAIGLNHTNSVSVMYPKGSIYTIQPQDIKNLKKIYHEN
MLGHNKISVIIPAYNEERRIGNVLKGIPDFVDEVIVVDDGSSDGTSKVAMELGATVIRLNKNSGKGAAMREGLKISTGDIIVFMDADGQHNPKEIYRLVKPIVEGRADLVIGRRIITRGKRPMSRKISNFITTRLITLKTRKKILDTQSGFRAIRREFVPVIESDRYEVETEVLIKAIKKGARILEVPISTRYDVETGHFKMIDIFRFLFALIKYLEHHHHHH
MGSDKIHHHHHHMIPEKRIIRRIQSGGCAIHCQDCSISQLCIPFTLNEHELDQLDNIIERKKPIQKGQTLFKAGDELKSLYAIRSGTIKSYTITEQGDEQITGFHLAGDLVGFDAIGSGHHPSFAQALETSMVCEIPFETLDDLSGKMPNLRQQMMRLMSGEIKGDQDMILLLSKKNAEERLAAFIYNLSRRFAQRGFSPREFRLTMTRGDIGNYLGLTVETISRLLGRFQKSGMLAVKGKYITIENNDALAQLAGHTRNVA
MSTRPTTDKVKEAIFNMIGPYFSGGNGLDLFAGSGGLGIEALSRGIERVIFVDHDRKAVQTVRKNVAACGLEKRAEIYCNDAERALKAVAKRGLRFAVIFLDPPYKEKQWPTLLSSIVERQLLEPHGVVVAEHSAEAELPEEVGGLTRWKRETYGITGVTIYRWEGDGSDGEHCGLPREL
MAHHHHHHMADYEPEDNLEQNSTLSSESIQEDISSLLRTKLAGEQWNPAKVDGWVEDIVNSILTELAELKKPYKYIVTCVFMQRTGAALSVGFISLWDNTKDGMVHVPFENDSFHCLVTVYFLKND
MGSDKIHHHHHHMSIELIDLHPAPADLKQLVQSGFKCQPRQLPAWVLYDAKGSRLFAQICEQPEYGLTRTEIKLLEENAPAIAKAVGDGVIVEFGIGNARKVSPLLNAIRPSTFVALDISQAALKDSLTRLASTYPMVSILGICCDHSSMQALPPHPRLEGVRCIGFFPGSSLGNFTPKEAVAVLRRFRKLLGGGPLLLGLDQPRDPIQLEAAYNDEAGISAAFARNLLHRLNRELEADFRPDQFSYRARWQEEFHRIEMALVSRCSQTIVIDNSTWSFSAGEPLITEYSVKYNPQEAARLAEKAGWRINQRWHDSADSLSLHLLEPSD
MGPHFTLLLAALANCLCPGRPCIKCDQFVTDALKTFENTYLNDHLPHDIHKNVMRMVNHEVSSFGVVTSAEDSYLGAVDENTLEQATWSFLKDLKRITDSDLKGELFIKELLWMLRHQKDIFNNLARQFQKEVLCPNKCGVMSQTLIWCLKCEKQLHICRK
MRVSDQVVQKLQGLIEQRHLKQGDRLPAERQLATSLGISRPSLREAIQQLNSLGILASRRGDGTYIQQLPETWSQQLIVEPISNLIEEDPEYRFDVQEARIVLEGGTAWYAALRSTEADRAKIHQCFDEIAYHQLQGDSAAAAVADANFHLAIAEASHNLVLIQMMRSLFDLLQYNVVLGRKKVYNHPVSADQLSEQHFQVMDAIDRQDAQAARDAVCGHIEFVIDHVRSLDEDEARQKRATRLHRIDQT
MSHSVPNALMTGADYLDSLRDGRQVYLNGERVADVTRHRAFRNACRSIAGLYDGLHGEQRDVLTRVDAQGRRSHRFFTPAQNAEDLLGAREAIGCWSRMTYGFMGRTPDYKAAFMSGLEAGAGFYGDYRHNACAWHRAFADRGLFLNHAIINPPLDRSKAIHEMRDVFVHVERETDQGIVVSGAKMLATGSAITNATFVAPVASAQMEAGKAEDFAVVFFARMDNPGLRLMCRPSYEERASSPFDYPLSSRFDENDSVLLFDKALIPWEDVLVYRDLRRATGFYAESGFANLYNFQSGIRLGVKLELMIGLLSLGVRANGTQSFRGIQAALGELIALQHLLQALTTAMARDPERNAAGSAVPRLEYANALRIQVPQIWKRVRELLESALGGAPLVTVSGAADLRDGEARRLVDSYYRGAELEPEQRLKLFKLIWDATGSEFGARHAVYESHYSGNAEQIRLDSLAWASRRGHLAYCEAMVQRCMADYDIHGWLRGPWQHD
MKRGYVLHHRPYRESSALVNLLVDGIGRVDAVARVGSGKRSIKSILQPFQPLIFEFSGKSELKNISQIEAAAPAVPLSGYSLYAGMYINELLMRTLSVQHNAEALFFIYHQALVGLAAQFCESKLRYLELALLRELGAMPSLIRDTQGEPLIPEHCYQLVPELGFQFVLNSRAKHTYQGAMLTALNDNQLLQEQFLEAKRLMRSMLQPLLGNKPLVSRQLFIQAAASKVDGNN
MGSDKIHHHHHHMQEIELKFLVPEPRLKGLMRQAKIKSSQVTQLAAHYYDTPDQQLAQAGIGLRIRQEGNAWVQTIKASGDGIAARLEHNLTLDNEQVQAMLDNNELLPDLTIYKDTPIAPALADFKLKKLAKQLTRLYVTDVERTTRLLIKDTGDEVVNSIEMAYDYGEIIHGTDDTQRDVIQEIEFELISGELDFLFSTAKTWCQRYKLCLSTVTKAERGGRLIKGQSHTPATAADLSELNIDKKIGMPAFLRAVVHNCLLQILPNSSAIVAGSKDNEHLLQLSIGIERLHTVLQAFDSFSDEINPDWSAILQQTATLLTEYRKLAYLSTHIEPRLQKDGAPIVDWTADIDALKITPIAAISTNHFQIMLLELIAFTMSDPSLEPQTDKLAINKLEKILVKYHEKLLKAEQYLEDRYDESDSELENESIIKALHNLHDHLKDLRYISELVAPLYGKKKTKRWLKRTVKAQKTLGQQLNMSDYQQYYQSKASSDFAALYAAGWLNAVLIPMEKATEKRLDKFYACSVFW

Soluble on expression in E. coli, soluble:
GAMASSVLVTQEPEIELPREPRPNEECLQILGNAEKGAKFLSDAEIIQLVNAKHIPAYKLETLIETHERGVSIRRQLLSKKLSEPSSLQYLPYRDYNYSLVMGACCENVIGYMPIPVGVAGPLCLDEKEFQVPMATTEGCLVASTNRGCRAIGLGGGASSRVLADGMTRGPVVRLPRACDSAEVKAWLETSEGFAVIKEAFDSTSRFARLQKLHTSIAGRNLYIRFQSRSGDAMGMNMISKGTEKALSKLHEYFPEMQILAVSGNYCTDKKPAAINWIEGRGKSVVCEAVIPAKVVREVLKTTTEAMIEVNINKNLVGSAMAGSIGGYNAHAANIVTAIYIACGQDAAQNVGSSNCITLMEASGPTNEDLYISCTMPSIEIGTVGGGTNLLPQQACLQMLGVQGACKDNPGENARQLARIVCGTVMAGELSLMAALAAGHLVKSHMIHNRSKINLQDLQGACTKKTA
MSLTMKDVALEAGVSVGTVSRVINKEKGIKEVTLRKVQRAIKTLDYIPDNYARGMKKNRTETIALIIPSIWHPFFSEFAYHVEKELLKYNYKLFICNADSDSQNEIEYIEMLKQNKVDGIIGITYSDIDKYILSDLPFVSIDRHFSENVCYVTSANYKGGQTAAEELVRRDNKHLAFIGSINMYENETILRSKGFREKAKELGVDVYNFEMKEPLINPEDQIRIFLQSHKEIDGIFTINDMMALRVISVMKELGKIAPDDYQIIGFDGLKTSVDQSYLVSTIVQDIGMMAKESVAMILKMIKREEILEKRIVIPTYFWGDKTTKKEGHHHHHH
MTRAQPEPVQVVKQRRDAALRALVSGVPYITYLGIQFDRRGDELTAVLPFDEKLIGNPMLPAIHGGVTAAFLEVASIIELSWSVLWHEMEQGRLDPDQIEARLPRLPKTIDFTVDYLRSGLPRDAYARARVNRSGRRYASVHVEAWQDNRLRPFAQATGHFLMPARNDLEHHHHHH
MSLKLVKLETFSTEFVCFVRATAEDGAQGWGQVAPYYADITAQVLHRQVAPYALGMACEDIDAMLDIVRDREHKFPGSYLRRAMGGVDTALWDMHGRRAGKPVCVLIGGTPGPVRAYGSSMKRDITPRDEAARLVRLRDEQGFDAFKFRIGAEVGRDRDEWPGRTEEIVPTMRRAMGDDVALLVDANSCYSPARAIEVGRMLEQHGISHYEEPCPYWEFAQTKEVTDTLDLDITGGEQDCLMERWQTMIADRVVDVLQPDICYLGGLSRTLRVARMAEAAGMPITPHAANLSMVTLFTMHLLRAIPNAGKYLEFSIEGLDYYPWQQGLFTSDPYRIEEGHATVTDAPGWGVDVNPDWLARSDYRVSELGEGHHHHHH
MKFVAVIRQVPDGESKLRIQGDRVDLSGATMILDQMDEYAVEEAIRLKERHGGEAVVVGFGPERTEEAIRTALAMGMDRGVHVVYEGFADPVAVAEALVEVLKEEAPTLVLTGGQQADWDSQALGGALTEALGVPVVAWTTALELEGDTAKAKHDLDEGAEWVRVRLPAVFTTQQGLNEPRYPTLPGIMKAKKKEIRKVQASLTPKVTLISEEIQEKSRLGKILDGKDPVAAAEELVRLLHEEAKVI
MANRSHHNAGHRAMNALRKSGQKHSSESQLGSSEIGTTRHVYDVCDCLDTLAKLPDDSVQLIICDPPYNIMLADWDDHMDYIGWAKRWLAEAERVLSPTGSIAIFGGLQYQGEAGSGDLISIISHMRQNSKMLLANLIIWNYPNGMSAQRFFANRHEEIAWFAKTKKYFFDLDAVREPYDEETKAAYMKDKRLNPESVEKGRNPTNVWRMSRLNGNSLERVGHPTQKPAAVIERLVRALSHPGSTVLDFFAGSGVTARVAIQEGRNSICTDAAPVFKEYYQKQLTFLQDDGLIDKARSYEIVEGAANFGAALQRGDVAS
MGSSHHHHHHSSGRENLYFQGMQCNTSIEDGLDGGDITFPSYSPEAEAQNRFLPRSEFPSVRQLVISKQKSRRRREENVFVGKMEDVLVKWRPPASSHRGAIEAINGTHPYQLSTAQFNSRRSDPFGSTKRDESVRSIVESFTDWWKRNSKMFFRDEEEGVRTEHSASQDDQELQLFEEDLFSFHLSPNDMSTRNSEHQVQTPVLFPYEAPTRTKQNPAERKVIEIGDGEELSIYRDVYSNPIPVSYLDTLNLNHSMSVRQTQQQQQQRQQQQYVDSSSAFQCCTDSNWARIFFCHHD
